From US20170275639A1

Molecular target: WNV (strain New York 1999), infectious virus (West Nile virus, strain New York 1999) (UniProt Q9Q6P4)
Assay: cell-based or functional assay

EC50, focus reduction neutralization assay (Vero cells): 3 ng/mL
Substance: Tetra pHu-E16 (tetravalent molecule assembled from pHu-E16scFv-CH^1-3 and pHu-E16scFv-CL) (antibody)
